One assay addresses T1, wild-type HER2 receptor (Homo sapiens, UniProt P04626).
T1 construct: expressed in transfected cells
Nature of the assay: HER2 reporter cells (clone #1) transfected with wild-type HER2, 384-well plate. It is filed as cell-based. How it is done: Clone #1 is alternately referred to as the “HER2 reporter cells”. These cells were transiently transfected with the wild-type, constitutively active or kinase-dead forms of HER2 receptors in the 384-well format. After 24 hours, the transfected cells were treated with NRG1. The luciferase reporter activity of the transfected cells was measured by Nano-Glo® Luciferase Assay (Promega). […] The reporter activity of the transfected cells expressing the wild-type form of HER2 receptor was activated upon treatment with NRG1 (FIG. 25). When the cells were transfected with the constitutively active form of HER2 receptor, the reporter activity was activated in the absence of NRG1. However, no activation of reporter was detected when the cells were transfected with the kinase-dead form of HER2 receptor.
The HER2 reporter cells were first transfected with 100 ng of linear expression cassette of HER2. NRG1 was added to the cells 24 hours post-transfection. […] A robust reporter signal was detected even at 2.5 ng/ml of NRG1.
To further reduce the assay turnaround time, different stimulation methods were explored. The first method evaluated was Example 9d which was performed by addition of NRG1 to the cells 24 hours post-transfection for 4, 6 and 24 hours. […] The reporter activity was measured 24 hours post-transfection (FIG. 27A). […]

For another assay, the target named is T2, L755S HER2 receptor (Homo sapiens, UniProt P04626, L755S).
T2 construct: expressed in transfected cells; host or cells: HER2 reporter cells (clone #1)
In words: HER2 reporter cells transfected with linear expression cassette of L755S HER2, all-in-one method. It is filed as cell-based. The source says:
L755S corresponds to a missense mutation of HER2, which changes leucine (L) into serine (S) at amino acid position of 755. In order to functionally characterize this mutation, PCR-mediated overlapping extension was employed to construct linear expression cassette of HER2 carrying this mutation. The linear expression cassette of mutant HER2 DNA was first transfected into the reporter cells followed by treatment with NRG1 and its inhibitors using the “all-in-one” method. The luciferase reporter activity was measured 24 hours post-transfection.

The target of assay [1] is T3, HER2 and HER3 receptors (Homo sapiens, UniProt P04626+P21860).
T3 construct: expressed in transfected cells; host or cells: HEK293
Nature of the assay: ERK-Luc / JNK-Luc / 6×JNK-Luc reporters in HEK293 cells with HER3 and HER2, treated with NRG1. It is filed as cell-based. How it is done: (§1) In order to characterize the specificity of activation of ERK-Luc and JNK-Luc reporters upon treatment of HER3 ligand, ERK-Luc or JNK-Luc was co-transfected with expression plasmids of HER3 and wild-type or kinase-dead HER2 receptors into the HEK293 cells. After 24 hours, the transfected cells were treated with NRG1 (HER3 receptor ligand). The luciferase reporter activity of the transfected cells was measured by Nano-Glo® Luciferase Assay (Promega). In FIG. 13A, no difference in ERK-Luc reporter activity was found between the cells transfected with wild-type HER2 and kinase-dead HER2 after the treatment of NRG1. […] However, the activity of JNK-Luc reporter was reduced in the cells transfected with kinase-dead HER2 compared to the cells transfected with wild-type HER2 (FIG. 13B).
(§2) In order to examine the dose response of NRG1 in the activation of JNK-Luc reporters, JNK-Luc with expression plasmids of HER3 and wild-type HER2 receptors were co-transfected into the HEK293 cells. After 24 hours, the transfected cells were treated with a serial dilution of NRG1 (HER3 receptor ligand) for 6 hours. The luciferase reporter activity of the transfected cells was measured by Nano-Glo® Luciferase Assay (Promega).
(§3) In the previous example, the JNK-Luc reporter contained 3 copies of AP-1 binding site. We observed around 2.6 fold induction of reporter activity when the transfected cells were treated with 100 ng/ml of NRG1 (FIG. 14). In order to enhance the activation of reporter activity, the AP-1 binding site was increased from 3 copies to 6 copies. 6×JNK-Luc was co-transfected with expression plasmids of HER3 and wild-type HER2 receptors into the HEK293 cells. After 24 hours, the transfected cells were treated with 100 ng/ml of NRG1 (HER3 receptor ligand) for 6 hours. The luciferase reporter activity of the transfected cells was measured by Nano-Glo® Luciferase Assay (Promega). In FIG. 15, the 6×JNK-Luc reporter was activated by the treatment of NRG1 only when both HER2 and HER3 receptors were expressed (FIG. 15). Approximately a 4.2 fold induction of reporter activity was found.
(§4) For cell transfection experiments, HEK293 cells (ATCC) were plated at density of 4-8×10^4 cells per well (96-well plates) or 1-2×10^4 cells per well (384-well plates) in phenol red-free MEM containing 10% FBS and antibiotics. Either DNA plasmid or linear DNA was mixed with TransIT-293 transfection reagent (Mirus Bio LLC). Once cells were trypsinized, DNA transfection mix was added. The cells were then incubated for 24 or 48 hours.

Assay [2] has as its system HER2 and HER3 receptors. Described as above. It is filed as cell-based, human. As to conditions: HER3 plus wild-type or kinase-dead HER2; HEK293. As to the method: as §1, §2, §3, §4
The target of the next assay is T4, P780ins HER2 receptor (Homo sapiens, UniProt P04626, INS780GSP).
T4 construct: expressed in transfected cells; host or cells: HER2 reporter cells (clone #1)
Nature of the assay: HER2 reporter cells transfected with linear expression cassette of P780ins HER2, all-in-one method. Format: cell-based. The note with it: all-in-one method. An excerpt: P780ins corresponds to an insertion mutation of HER2, which adds 3 amino acids (GSP) after the amino acid position of […] (Proline—P). In order to functionally characterize this mutation, PCR-mediated overlapping extension was employed to construct linear expression cassette of HER2 carrying this insertion. The linear expression cassette of mutant HER2 DNA was first transfected into the reporter cells followed by treatment with NRG1 and its inhibitors using the “all-in-one” method. The luciferase reporter activity was measured 24 hours post-transfection.

“Also recorded” adds a separate entry of the source.

This note sets out measurements from US11319601B2, “Cell based assay” (Medical Diagnostic Laboratories, L.L.C., priority 2017, dated 2022).

As to “NRG1: neuregulin-1, HER3 receptor ligand”, in the assay with wild-type HER2 receptor, the “reporter activation by ligand” value is “activated; also recorded: dose-dependent response; also recorded: good dose response; also recorded: dose dependent manner”. For the same substance, the “response of mutant HER2 reporter activity to ligand” value in the assay with L755S HER2 receptor was “responds to treatment”; with P780ins HER2 receptor, “independent”. Moreover, in the assay with HER2 and HER3 receptors [1] (100 ng/ml of NRG1, 6 hours, HEK293 with HER2 and HER3), the “induction of 6×JNK-Luc reporter activity” value is about 4.2 fold. Further, the “induction of JNK-Luc reporter activity (3 copies of AP-1 binding site)” value with HER2 and HER3 receptors [1] (100 ng/ml of NRG1, HEK293 with HER2 and HER3) was “around 2.6 fold”. The JNK-Luc reporter activation result in the assay with HER2 and HER3 receptors [1] (HER3 plus HER2, HEK293, serial dilution 6 hours) is recorded as “activated JNK-Luc reporter in a HER2's kinase dependent manner; also recorded: dose dependent activation”. Also, the ERK-Luc reporter activation result in the assay with HER2 and HER3 receptors [2] is on record as “effectively activated”.
